Literature values in publication PMC7054563.

Target: Glu150 (UniProt position 150, LMANVELIAPL)

Multidrug transporter MdfA, triple mutant E26T/D34M/A150E (Escherichia coli; E26T;D34M;A150E)
pKa: 6.5
